Results: the DeepSol protein solubility set

Assay: soluble on expression in E. coli; label from the status in PepcDB or PDB records

**Q.** For “MGSDKIHHHHHHMTSQLNELVEFLHSPQPAVRQIAIDNLVGFSAGPTSKVFKNDSYRPIKDIIKMIMDPEHGTRVIIQQGVTILVNLSEDKLVRNIILSDDKKFLKFLVWKIVDLTNPNADIMCILLSNLAKDDGILAVLNIKRNSSGEEVDDGLKLAALNKEVFKSLRAMDCLMDCFVKGYDKKLTKYASFNYLAFFFADISRFKLGRMYFIEEQEYDGVVPISKLLVFTEKYDAKVRREGVASTIKNSLFDSETHERLLKDEKINLLPYILLPIASAKDSEIDEEDMFNLPDELQLLPEDKERDPIPAIICCHLESILLLCTTHAGREYLRDKSVYPLVRELHKNVENEDIGELCYRIVNMLMRGEPGAGAVEEMPSKNAEEEEEEESEEEEDDDEEDEIVEVA”, which “soluble on expression in E. coli” value is on record?
**A.** not soluble

**Q.** With “GPGSMLRLGQPTLTAMRCVPAASASATAVAPTTSYPSTSAALLANTRAIHGEVRHQNTDYDNTRIPWDFTTSSYEKIHNEILPKFPRGRRISATIPLLHLAQQQQGGYIPVTAMYKIAKICEVPPMHVFETVTFYSMFNRHPVGKYHIQFCRTTPCMLCGADELMERTMHYLNVRMHGTTSDGLITIGEMECLGACVNAPMLVVSDYSNPPNFSYDYMEDLTWESIKTLVENLRGGKPFKIGSQRLDRRYAEPAGGRTSLLFKEPPGPYCRDFDAEPDKKADAASPKK” as the sequence, how does the “soluble on expression in E. coli” value read?
**A.** not soluble

**Q.** For “MSLKNTPPGFPSHSSATLAFALAIAAGGAQAAGFVEDAKGTLTLRNFFINRDFKGDNATRSKAEEWTQNFLLDLKSGYTEGPLGLGLDVLGLYSVKLDGGKGTGGTQLLPLDHDGKPADRFGRLAVAGKLKLSETELRAGEWALVLPILRSDDGRSLPQTFRGSMLTSKEIENLTLYAGHITGNSPRDDGSMEEMTLFGTSPYTSDRTSDDFDFGGLEYSFNGKRTLVGVWYARLKDIYKQRYIQLQHSQPLGGDWTLGANIGYFDGEDDGEALEGHLDNKALSGLFSLRTGAHTFYLGLQRISGDSKWLRVNGTSGGTLANDSYNSSYDNARERSWQLRYDYNFAALGMPGLTFMTRYISGKNIHVGAVDDGEEWGRESEVAYVVQSGAAKNLTLRWRNTTMRRDYGSDNQFNEQRLIVQYPLSLFEGHHHHHH”, which “soluble on expression in E. coli” value is on record?
**A.** soluble

**Q.** With “SSTHGSRFPLCGGRRDHKGLTHIFNPPPKRFESILEGLFGPALLKDLSLFKDCEPESISDWTFDENCLFCCLRRDKVKGHLVGLDEPASGAGQEALLKQEQAKIIRFERQAEEFLNAVFYRKDSPWVSDPNIPLVAREIMQRMIQQFAAEYTSKNSSTQDPSQPNSTKNQSLPKASPVTTSPTAATTQNPVLSKLLMADQDSPLDLTVRKSQSEPSEQDGVLDLSTKKSPCAGSTSLSHSPGCSSTQGNGRPGRPSQYRPDGLRSGDGVPPRSLQDGTREGFGHSTSLKVPLARSLQISEELLSRNQLSTAASLGPSGLQNHGQHLILSREASWAKPHYEFNLSRMKFRGNGALSNISDLPFLAENSAFPKMALQAKQDGKKDVSHSSPVDLKIPQVRGMDLSWESRTGDQYSYSSLVMGSQTESALSKKLRAILPKQSRKSMLDAGPDSWGSDAEQSTSGQPYPTSDQEGDPGSKQPRKKRGRYRQYNSEILEEAISVVMSGKMSVSKAQSIYGIPHSTLEYKVKERLGTLKNPPKKKMKLMRSEGPDVSVKIELDPQGEAAQSANESKNE” as the sequence, how does the “soluble on expression in E. coli” value read?
**A.** soluble

**Q.** For “MTTKNTLQPTEAAYIAGFLDGDGSIYAKLIPRPDYKDIKYQVSLAISFIQRKDKFPYLQDIYDQLGKRGNLRKDRGDGIADYTIIGSTHLSIILPDLVPYLRIKKKQANRILHIINLYPQAQKNPSKFLDLVKIVDDVQNLNKRADELKSTNYDRLLEEFLKAGKIESSP”, which “soluble on expression in E. coli” value is on record?
**A.** soluble

**Q.** With “MNNNHYTYRVLWSQEDEEYVGLCAEFPSLSWLDAQAEKALKGIMDLVSEVVEDMQHNGEEVPVPLSHGKYSGKFQLRIPPELHRKLAIQAAENGVSLNRYISSKL” as the sequence, how does the “soluble on expression in E. coli” value read?
**A.** not soluble

**Q.** Which “soluble on expression in E. coli” value does the source give for “MIANRPQHEKWAVIVNEFGEVGIDGAALLNDELAVAEIAGGCLCCVAGPQMTATVATLLRREKPDRLLIEASGLAHAAGVIDELRAKPLGEALEVAAVLTLVDPRQFIQPDYHRQPLYRDQISIADVLVANKIDTADIPTMEAFRAQAAALFPPKSLVGEVRDGQLDVAWLDAELAAKPRYRPAVLPDNASAWQSAGWTFDPELNFDGERLTRLFDGLPAKVPGLVRAKGVFRVLDSWVWLNWAAGQWGAAQVSWRRDSRFELIAPEFDAAAVEAWLKECLELEHHHHHH” here?
**A.** not soluble

**Q.** Which “soluble on expression in E. coli” value does the source give for “MSIASVASVFKGEHAVGSTVTVRGWVRTRRDSKAGISFLAVYDGSCFNPIQGVVPNSLENYDNEVLKLTAGCSVIVTGDIVESPGAGQAYELQVTAVEVTGWVEDPDTYPMAAKRHSIEHLRELAHLRPRTNIIGAVARVRNCLSQAIHRFYHENGFVWVSTPLITASDCEGAGEMFRVSTLDMENLPRTSDGKVDYDKDFFGKEAFLTVSGQLNGETYACALSKIYTFGPTFRAENSNTSRHLAEFWMVEPEVAFATLNDIAGLAEGMLKYAFNAVLTERMDDLQFFAQHVDKTVIERLQSFVSSDFAQVDYTDAVEILQKSGREFEFPVSWGIDLSSEHERYLAEEHFKAPVVVKNYPKDIKAFYMRLNEDGKTVAAMDVLAPGIGEIIGGSQREERLDVLDMRLEEMDLNKEDYWWYRDLRRYGTVPHAGFGLGFERLVSYVTGVSNIRDVIPFPRAPRTANFLEHHHHHH” here?
**A.** soluble

**Q.** With “MGSDKIHHHHHHMKSNVVVKYPVNSELANYAEKFWKKELAIYNLSLILNKMTPFVKRRSESYKSSLSAVKEIFKNVDDFQNFLNSVLRRSLDEYRVFFENYERLFNSFSSKIFSMRTKSRLVVGLGDESVYETSIRLHRNYGVPYIPGSALKGVAKHYAFSILARENGDEILRIYESVKEDLKARIAKRDKIKKNDVPEDYYLTAAVIQELFEKKFDELGAIRNTRVEIGDTVISVGDIVKIFGTQKEEGSVIFFDAFPTPEQLKDKPNLELDIMNPHYQPYYQHGEPPGDWHSPNPIFFLTVPAGVEFTFAVASRDLDDLAEKAEKLLKEALKKFGVGAKTSLGYGRFDARDDR” as the sequence, how does the “soluble on expression in E. coli” value read?
**A.** not soluble

**Q.** With “MKCVEVHVIDSSAIFQRKAVYRNMVTVPEVVAEILDEASALYFSVKNFRVEEASPESVEEVKEAARKTGDIHKLSDTDIKVLAKALDEIKKGNEVVLVTDDYAIQNVAMSLGIRFDGILHRQISKEFKWVKVCRGCGRRIESEICPVCGSEAIIRRVKNDKNRNSG” as the sequence, how does the “soluble on expression in E. coli” value read?
**A.** not soluble

**Q.** With “GHMHTPFIVALDFPSKQEVERFLRPFAGTPLFVKVGMELYYQEGPAIVAFLKEQGHAVFLDLKLHDIPNTVKQAMKGLARVGADLVNVHAAGGRRMMEAAIEGLDAGTPSGRMRPRCIAVTQLTSTDERMLHEELWISRPLVETVAHYAALAKESGLDGVVCSANEAAFIKERCGASFLAVTPGIRFADDAAHDQVRVVTPRKARALGSDYIVIGRSLTRAADPLRTYARLQHEWNGGERESTTPT” as the sequence, how does the “soluble on expression in E. coli” value read?
**A.** soluble

**Q.** With “MKNMNKYENCLLCPRKCGINRSTGQTGVCGVSSEIKVARAALHYWEEPCISGKRGSGAVFFSGCSLHCVFCQNREISDGKAGKVISKERLSDIFMELADKGANNINLVTPGQYIPDIVWAVNDAKSRGMKLPIIYNTSGYENVTELKLLEGIVDVYLPDFKYMDSTLSARYSRAKDYPSVAKQALSEMVRQQPDVVIDDATGLIQKGVIVRQLLLPGHVNDAKAVLKYLYDTYHDHVYISMMSQFTPIALKDYPEINRTVTRREYERLVDYALEIGITNAFIQEGDVAKDSFIPAFDCEGV” as the sequence, how does the “soluble on expression in E. coli” value read?
**A.** not soluble

**Q.** With “RWETHVYRAVKDLLVGLGFTEVLQLVLTSPRLVEAAGFSSMAVEVLNPVQQEYSVLRPTLLITLLQTLRENQHRRKPVKVFEAGNAVYLEDGEPRDEEKLALGVLDEEAGFEDVQAPLYAVLRIMGVDFEVEEASHPMFMEGRTAAVKVGGERLGYIGEVKPEVLEAFGLEYPVAAAEISLEVLARWTSRT” as the sequence, how does the “soluble on expression in E. coli” value read?
**A.** not soluble

**Q.** For “MPPKPKKSTGAKKKVSKLNKRPSKISVVSVNERSKNERSVMQSIEQEEATNNEIVPTPKKTTAQIAQQPTPTLPQIIAKQEPEVAMKTMMLPPPSDPPPPPPPVAPHQPPPQLATSAQPPQPPVINSQLPRMSPAPAIPPSMAQPLLQSPSPGADIAIRRPSKEKTDEKSVDETGGSDKKKRTEVICSWIRLVLQNGVAGLKKEYRDSPNEAPEDIATSFLGNPTRNRYRNIPCCDITRVKLTDDPHFYIHANLVSSGPNPRRFICTQAPLNGTIEEFWKMIIVTGIEYIVMLCELVEKGKPKSAEYFPSQIGQTTKIGRLCTVTKESRVDIDKTLVMSTMRISKPGDNAVVKIVKHIHWRNWPDHGVPDNFLSPFRLLTVVKNCTKPIVVHCSAGVGRTGTLALILIILESICLPDFIGVPRLLAKLREERFRAVQTEMQYLYAHRCVLEYLALKKYVQSREDFAKFAKDYEQALAMCPKEA”, which “soluble on expression in E. coli” value is on record?
**A.** not soluble
